# Reference: article PMC2258145, “Transcriptional Regulation of PIK3CA Oncogene by NF-κB in Ovarian Cancer Microenvironment”
# B1: wt huPIK3CA NF-kB probe (dsDNA)
# DNA 1: GACGTGGGGGATTTTTCGCGTA
# DNA 2: TACGCGAAAAATCCCCCACGTC
# Target: NF-kB p50 (recombinant, Promega) (UniProt P19838 1-433)
# Experiment: EMSA; LightShift EMSA kit binding buffer, 1 ug poly(dI-dC), 30 fmol biotin probe, 20 ul, room temperature 20 min; 7.5% PAGE in 0.25x TBE; salt and pH not stated
# Conditions: protein: commercial; chain copies: 2; label: 5'-biotin; blunt
# Chain of NF-kB p50 (recombinant, Promega) (P19838 1-433): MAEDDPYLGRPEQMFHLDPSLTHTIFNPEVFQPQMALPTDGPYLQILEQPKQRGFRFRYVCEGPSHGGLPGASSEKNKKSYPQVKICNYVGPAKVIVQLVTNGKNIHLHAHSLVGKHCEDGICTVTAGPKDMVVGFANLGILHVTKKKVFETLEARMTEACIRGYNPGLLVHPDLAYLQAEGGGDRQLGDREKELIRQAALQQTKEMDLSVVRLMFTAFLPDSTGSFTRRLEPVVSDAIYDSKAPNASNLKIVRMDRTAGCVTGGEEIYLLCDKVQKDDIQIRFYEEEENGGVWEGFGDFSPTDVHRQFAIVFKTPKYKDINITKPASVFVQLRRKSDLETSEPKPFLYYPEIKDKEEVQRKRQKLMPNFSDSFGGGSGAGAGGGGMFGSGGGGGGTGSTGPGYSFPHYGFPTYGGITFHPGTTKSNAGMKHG
binder,measurement,value
B1,binding result,binds
